# How the values were obtained:
# [1] = target: H9 HA A/Hong Kong/1073/99, recombinant (influenza A virus)
# [2] = target: H2 HA A/Singapore/1/1957, recombinant soluble trimer (influenza A virus)
# [3] = target: H15 HA A/shearwater/Western Australia/2576/1979, recombinant (influenza A virus)
# [4] = target: H3 HA A/Hong Kong/1/1968 (H3N2), recombinant soluble trimer (influenza A virus) (UniProt Q91MA7)
# [5] = target: H7 HA A/Shanghai/2/2013 (H7N9), recombinant uncleaved trimer (influenza A virus)
# [6] = target: H5 HA A/Indonesia/05/2005 (H5N1), recombinant (influenza A virus)
# [7] = target: H12 HA A/duck/Alberta/60/1976, recombinant (influenza A virus)
# [8] = target: H14 HA A/mallard duck/Astrakhan/263/1982, recombinant (influenza A virus)
Substance,EC50 relative to wild type rFluA-20 [1],EC50 [2],EC50 [3],EC50 [4],EC50 relative to wild type rFluA-20 [5],EC50 relative to wild type rFluA-20 [6],EC50 [7],EC50 relative to wild type rFluA-20 [8],EC50 [1],EC50 [5],EC50 relative to wild type rFluA-20 [3],EC50 relative to wild type rFluA-20 [7]
rFluA-20 heavy chain mutant C101A (antibody),> 100 fold,0.44 mg/L,0.11 mg/L,0.13 mg/L,> 100 fold,> 100 fold,0.09 mg/L,> 100 fold,–,–,–,–
rFluA-20 light chain mutant N53A (antibody),–,0.16 mg/L,0.06 mg/L,–,–,> 100 fold,0.03 mg/L,> 100 fold,0.17 mg/L,0.87 mg/L,–,–
rFluA-20 light chain mutant Q55A (antibody),–,–,–,–,–,–,–,–,–,–,> 100 fold,> 100 fold

# Reference: US20220387578A1
